Data taken from paper PMC10097714, “ALS-linked TDP-43 mutations interfere with the recruitment of RNA recognition motifs to G-quadruplex RNA”.
Each block holds one molecule with its values, some of them ahead of it.

How the values were obtained:
[1] = molecular target: His-tagged RRM segment of TDP-43 (101-261aa) (UniProt Q13148); experiment: GST pull-down (glutathione sepharose beads) with western blotting, band quantification; conditions: three experiments, parent: est. 1.0, read off a plot
TDP-43 WT full-length [2] = molecular target: T1, TDP-43 WT full-length (human, UniProt Q13148 1-414); experiment: EMSA (agarose); EMSA: 20 mM PIPES-NaOH pH 6.8, 150 mM NaCl, 0.8 mM MgCl2, 10% glycerol, 0.1 mg/ml BSA, 0.1 mg/ml poly-dI-dC, 25 C, gel 0.5x TBE pH 6.8; SPR: 20 mM PIPES pH 6.8, 12 mM KCl, 0.8 mM MgCl2, 150 mM NaCl, 0.05% Tween-20, 25 C; UV cross-linking: EMSA buffer without poly-dI-dC; pull-down: PIPES pH 6.8, 145 mM NaCl, 5.4 mM KCl, 0.8 mM MgCl2, 1.8 mM CaCl2, 0.05% Tween-20, 10% glycerol, 4 C; conditions: protein: recombinant; tags: untagged; chain copies: 2; label: 5' Cy3, 3' Alexa Fluor 647; parallel G4, A loop
GST-RRM [3] = molecular target: T2, GST-RRM (human, UniProt Q13148 101-261); experiment: EMSA (agarose); higher affinity than CaMKIIa G4; EMSA: 20 mM PIPES-NaOH pH 6.8, 150 mM NaCl, 0.8 mM MgCl2, 10% glycerol, 0.1 mg/ml BSA, 0.1 mg/ml poly-dI-dC, 25 C, gel 0.5x TBE pH 6.8; SPR: 20 mM PIPES pH 6.8, 12 mM KCl, 0.8 mM MgCl2, 150 mM NaCl, 0.05% Tween-20, 25 C; UV cross-linking: EMSA buffer without poly-dI-dC; pull-down: PIPES pH 6.8, 145 mM NaCl, 5.4 mM KCl, 0.8 mM MgCl2, 1.8 mM CaCl2, 0.05% Tween-20, 10% …; conditions: protein: recombinant; tags: GST; label: 5' Cy3, 3' Alexa Fluor 647; parallel G4, A loop
GST-RRM [4] = molecular target: T2, GST-RRM; experiment: EMSA (agarose); EMSA: 20 mM PIPES-NaOH pH 6.8, 150 mM NaCl, 0.8 mM MgCl2, 10% glycerol, 0.1 mg/ml BSA, 0.1 mg/ml poly-dI-dC, 25 C, gel 0.5x TBE pH 6.8; SPR: 20 mM PIPES pH 6.8, 12 mM KCl, 0.8 mM MgCl2, 150 mM NaCl, 0.05% Tween-20, 25 C; UV cross-linking: EMSA buffer without poly-dI-dC; pull-down: PIPES pH 6.8, 145 mM NaCl, 5.4 mM KCl, 0.8 mM MgCl2, 1.8 mM CaCl2, 0.05% Tween-20, 10% glycerol, 4 C; conditions: protein: recombinant; tags: GST; label: 3' Alexa Fluor 647
TDP-43 WT full-length [5] = molecular target: T1, TDP-43 WT full-length; experiment: EMSA (agarose); up to 10x protein; EMSA: 20 mM PIPES-NaOH pH 6.8, 150 mM NaCl, 0.8 mM MgCl2, 10% glycerol, 0.1 mg/ml BSA, 0.1 mg/ml poly-dI-dC, 25 C, gel 0.5x TBE pH 6.8; SPR: 20 mM PIPES pH 6.8, 12 mM KCl, 0.8 mM MgCl2, 150 mM NaCl, 0.05% Tween-20, 25 C; UV cross-linking: EMSA buffer without poly-dI-dC; pull-down: PIPES pH 6.8, 145 mM NaCl, 5.4 mM KCl, 0.8 mM MgCl2, 1.8 mM CaCl2, 0.05% Tween-20, 10% glycerol, 4 C; conditions: protein: recombinant; tags: untagged; chain copies: 2; label: 3' Alexa Fluor 647
TDP-43 WT full-length [6] = molecular target: T1, TDP-43 WT full-length; experiment: EMSA (agarose); lower affinity than PSD-95 G4; EMSA: 20 mM PIPES-NaOH pH 6.8, 150 mM NaCl, 0.8 mM MgCl2, 10% glycerol, 0.1 mg/ml BSA, 0.1 mg/ml poly-dI-dC, 25 C, gel 0.5x TBE pH 6.8; SPR: 20 mM PIPES pH 6.8, 12 mM KCl, 0.8 mM MgCl2, 150 mM NaCl, 0.05% Tween-20, 25 C; UV cross-linking: EMSA buffer without poly-dI-dC; pull-down: PIPES pH 6.8, 145 mM NaCl, 5.4 mM KCl, 0.8 mM MgCl2, 1.8 mM CaCl2, 0.05% Tween-20, 10% …; conditions: protein: recombinant; tags: untagged; chain copies: 2; label: 5' Cy3, 3' Alexa Fluor 647; parallel G4
GST-RRM [7] = molecular target: T2, GST-RRM; experiment: as above; conditions: protein: recombinant; tags: GST; label: 5' Cy3, 3' Alexa Fluor 647; parallel G4

ratio to parent ([1]; + CaMKIIα G4 RNA): 0.26
ratio to parent ([1]; + PSD-95 G4 RNA): 0.2
Molecule: GST-fused wild-type glycine-rich (GR) segment of TDP-43 M337V

ratio to parent ([1]; + CaMKIIα G4 RNA): 0.52
ratio to parent ([1]; + PSD-95 G4 RNA): 0.31
Molecule: GST-fused wild-type glycine-rich (GR) segment of TDP-43 G287S

Molecule: GGGGAAAAGGGAGGGAUGGG (structured_RNA) [Cy3-PSD-Ax647]
binding result (TDP-43 WT full-length [2]): binds
binding result (GST-RRM [3]): binds

Molecule: UGUGUGUGUGUGUGUGUGUG (ssRNA) [UG10-Ax647]
binding result (GST-RRM [4]): binds
binding result (TDP-43 WT full-length [5]): no binding

Molecule: UGGGGGGGGCGGGUGGGA (structured_RNA) [Cy3-CaMKII-Ax647]
binding result (TDP-43 WT full-length [6]): binds
binding result (GST-RRM [7]): binds
